Source: the DeepSol protein solubility set

Experiment: soluble on expression in E. coli; label from the status in PepcDB or PDB records

Soluble on expression in E. coli, not soluble:
MSLDIAQIALHQLIKRDEQTLDMVLRDSLLPTNAAVEDMMAELHRVYSAKSKAYGLFNEQSELADALRACRKGDEDFLSFSRAATGRLRDELAKYPFAEGGIVLFCQYRYLAVEYLLISVLNSCNSMRVNEQLDISTTHYLDINHADIIARIDLTEWETNPESTRYLTFLKGRVGRKVSDFFMDFLAASEGLDTKAQNRGLLKAVDEYCDEAQLDKNERQNYRQQVHSYCTEQLQSGEEIELASLSQELPPLGEKTFQQFSADQGYELEESFPADRGTLRQLTKFAGSGGGISLNFDALLLGERIFWDPATDTLTIKGTPPNLRDQLQRRTSGGKQLEHHHHHH, MSLDLEDKQQKLEQAILGALDEVQVLNEDRILRRYLDLIKATLRTNFYQPDGNGQNKSYFSFKFNPKAIPELPRPVPKYEIFVYSPRVEGVHLRGGKVARGGLRWSDREEDFRTEVLGLVKAQQVKNAVIVPVGAKGGFVPRRLPLGGSRDEIQAEAIACYRIFISGLLDITDNLKEGEVVPPANVVRHDEDDPYLVVAADKGTATFSDIANGIAAEYGFWLGDAFASGGSAGYDHKGMGITAKGAWVSVQRHFRERGIDVQKDNISVIGIGDMAGDVFGNGLLMSDKLQLVAAFNHMHIFIDPNPDAASSFVERQRLFNLPRSSWADYDAKLISAGGGIFLRSAKSIAITPEMKARFDIQADRLAPTELIHALLKAPVDLLWNGGIGTYVKSSKETHADVGDKANDGLRVDGRELRAKVVGEGGNLGMTQLARVEFGLHGGANNTDFIDNAGGVDCSDHEVNIKILLNEVVQAGDMTEKQRNALLVKMTDAVGALVLGNNYKQTQALSLAQRRARERIAEYKRLMGDLEARGKLDRALEFLPSDEELAERISAGEGHHHHHH, MSLDQREILQKFLDEAQSKKITKEEFANEFLKLKRQSTKYKADKTYPTTVAEKPKNIKKNRYKDILPYDYSRVELSLITSDEDSSYINANFIKGVYGPKAYIATQGPLSTTLLDFWRMIWEYSVLIIGMACMEYEMGKKKCERYWAEPVEMQLEFGPFSVSCEAEKRKSDYIIRTLKVKFNSETRTIYQFHYKNWPDHDVPSSIDPILELIWDVRCYQEDDSVPICIHCSAGCGRTGVICAIDYTWMLLKDGIIPENFSVFSLIREMRTQRPSLVQTQEQYELVYNAVLELFKRQMDVIRDKHSGTESQAKHCIPEKNHTLQADSYSPNLPKSTTKAAKMMNQQRTKMEIKESSSFDFRTSEISAKEELVLHPAKSSTSFDFLELNYSFDKNADTTMKWQTKAFPIVGEPLQEGHHHHHH, MSLEARGLNVTIMKLDPYINVDPGTMSPTQHGEVFVTQDGAETDLDLGHYERFIRTKMTKRNNFTTGKIYSEVLRKERRGDYLGATIQVIPHITNEIKDRVIAGAQGHDVVIVEVGGTVGDIESLPFLEALRQLAVQVGREHTLFMHLTLVPYIPTAGEVKTKPTQHSVKELLSIGIQPDVLICRSDRMIPPNERAKIALFCNVAERAVISLKDVNSIYQIPALLKSQGLDDFVCERFRLTCPEADLTEWEQVLYKQANPVGEVTIGMVGKYTELPDAYKSVNEALKHAGLTNRLSVNIKYIDSQDVETKGVEVLKGIDGILVPGGFGYRGVEGKIRTAQYARENKIPYLGICLGMQIALIEYARNVAGLTKANSSEFDKDCEQPVVALITEWQDAEGNTEVRTDESDLGGTMRLGAQQCHLVSGSRARELYGKETIEERHRHRYEVNNTLLPQIEKAGLKVTGLSADKKLVEIIEVPNHPWFVACQFHPEFTSTPRDGHPLFAGFVKAAYENHKKSVKEGHHHHHH

Soluble on expression in E. coli, soluble:
MSLDHIIIRHAHAAVITAPLNTPFRIATGQHDQLENVFFQLKAHDGTCGYGEAAVASHITGETVEQTLANLQKAATQLAGRNGNDPVELIEEFRPLFVGNHAALAAFEMALFDLASRSRGIPFGALFSAAPGCAARPRFQSDITIVIGSLEEAETAARHYAGQGFTAFKIKVGKDHELDLQRVLAVKRIAPDSCLVLDANMGFDATGMRRFLQQLEQHGIRPDLLEQPVPKGDWDGLAAITREFAGSGMLICADESVGSLAAAELAVALKAVNAINIKFMKSGITESVRIAELACRNNIKLMLGAMMESSLAITAAAHFAATLGCFEVIDLDTTFFINGPLSRSPYLDQSGRFDLGAPGPGIGVALKLLEGHHHHHH, MSLDKIRYGIMSTAQIVPRFVAGLRESAQAEVRGIASRRLENAQKMAKELAIPVAYGSYEELCKDETIDIIYIPTYNQGHYSAAKLALSQGKPVLLEKPFTLNAAEAEELFAIAQEQGVFLMEAQKSVFLPITQKVKATIQEGGLGEILWVQSVTAYPNVDHIPWFYSREAGGGALHGSGSYPLQYLQYVLGKEIQEVTGTATYQQGATDSQCNLALKFAEGTLGNIFINVGLKIPSEMTICGTKGQIVIPNFWKTDCAYYTDAQGNTVKWSEQFTSEFTYEINHVNQCLQDKKLTSPVMTKELTIATVKIVESFYQEWFDNEGHHHHHH, MSLDKVTLLLNWYVYGEHAPFFYGKAKGLYAAEGIDLDIQEGRGSAVTIQAVAAGTVQFGYADVPTMIRAAAKGAPVVAVGVALQKSPMSVMGFSDKNIRKPEDIKGKIVATTPGDSMSQIWPLFLKQAGLRASDFQVVSGDAQTKLNAVANGRADLLLGYVMDQSMKLKDATGKDVRPIMFADYGIHMVSSGIITNKDLLKSNPDLVRRFMKATTAAFIGAEKDPGAAVDALLADLPKAGKRETLLEGFALTTPLYHTDETKGRPPFQVTDADMTSTVDLLIEYGGLEASAKDNTKSFYTRDYLPAAGNEGHHHHHH, MSLDLGTTKYIIYAELIADGYVEKHDVIGAIFGQTEGLLGDELDLRELQKTGRVGRIDVELTNINGKSIAKITVPSSLDRIETSILAATLETIDRVGPCVATVKVIDIEDIRKKKREYIVERAKEILKQLMSNIDVNTIIEEVKESVRMGEIIEYGPERLPAGPAVDEGHHHHHH, MSLDNESLLAILNNWSATNYAKGNYILREISSKFLAKISIDSNDYLLDAGCGDGSFTQMLANLVPDGYVLGLDRSKTMIDYANKHCRSINVRFDIGDIQEPIIYGPFDNILSFWCLHWTDLEKSLSNLYHVLKPGGKICAIFSSGKQSTLFEVLNSLQFQNLYPDVAKNVVQSKMMRENYSVQCRRALDNLPFKSISFVVEHCQVELPDLGLFENFIHGAPLFKDLPGKMYQDIVNGMVQFFDEYCKKKYGGKWVYETTPYFLTITREGHHHHHH, MSLDREGLNTHLKSGATTVCRAWEVRRTDGVTLGFTDHDRDLSFDGMTFRAGTGLSARSLMQSTGLAVDNSEALGALSSDAVREADIESGRYDGAEVRAWLVNWADTTERALQFRGSLGEIRRAGGAFEAELRGLTEALNQPLGRVFQKPCSAVLGDAACKFDLSTAGYAVEIDVETLRDGQLFAWASLDGFAPGWFTGGRLTVLGGAGAGLWAPIRSDSLNARREITLWQPIRADIQPGDLVRLSAGCDKRQSTCRLKFDNLVNYQGFPDIPGEDWMVAVPKRTGQNTGGSRREGHHHHHH, MSLDRRAQQRLALGEFLRARRRAAVRAELGLPDMPRSRTSGLRREEVAVQAGVSVTWYTWLEQGRDINPSRQVLDAIARALRLSPSEHDYVLALGGYTVDHAVTAGPPPPQIQRFLDALGGHPAFAITSDWGIAAWNTAYAALYPNIERVPPPDRNLLWLVFMDPAIRELLPDWDADSRRFLAEFRADAGPMVGEPSYTALVSRLSSESPHFATAWRAADIERFTSRERLFRHPVVGELRLEHHQVAPVDVPDIQIVAYLPEPGSVAAERLRRLVGQAGDTAREGHHHHHH, MSLDSWNVLIADDEIIIREGIRDAINWSELQLTVVAEAEDGEEALELALEHQVDILLADLNMPIMNGLTLIKQLRTALPHCKVIIITGHDEFVYAQEAIRLSVVDYIIKPVDADQLYEVLKKVCIELTEGQNRKREETFTAKQLEKNITLLREQFCSNWVMGALTNEEVAEQLSFLQLPDTLPSFIGVIRCLNRLHLVGEGHHHHHH, MSLDTENVKYRSITTKIELDDLIESLKKAKYISIDTETSSLDTYTAKLIGISISFKEFEGYYIPIEAKGKIYIEKNYIIQKFNNLFESNPKIIGQNYKFDYKILKNNGFNPIPPYFDTMIAAYLIDTNSKVSLDFLAEKYLMHKNIKYEDVIQKNDNFANISLEMATSYSSEDADITFRLFNIFTKKLKEDKLDKLMHEIEMPFNKVIIEMEENGIYLDKEYLKEYGKELGKELEAIENEIIKSIGIDFNLNSPKQMHEILFEKLNLKLPEKMKKDSTDIKVLESLREQHESIENLIKYRQIAKLKSTYTDNLIELINYKTNRLHTSFIQTKTATGRITSINPNLQNIPIKDEKGRKIRKAFKPENGNIFISADYSQIELAILAHLSQDEVLIKAFENNKDIHTETASKLFKIEEKEITPNLRRIAKSINFGIIYRMSDFRLAKELGITKEEAKGFINSYFDSYPKIKEFIINQINFVRNAGYSETILKRRRYIKEINSNNYLERSAAERIAINSIIQGSAADIMKIAMVKVFNEFKSKKMESKILLQVHDEMLIESPIEEENEVKKILKIMMETAYTLNLPLRANIETGKSWGEIHEGHHHHHH, MSLDVFVLDTSVFTNPEIYRTFEEDQRGAMETFIHLALNSRAEFYMPTSVYTEMRKIMDVGELWAEFEMVVKIRSPRRFQLTVPADFLYEFIEELRYRINKGLRIAEEHTREASGCEDVGKLIARLREKYREALRQGILDSKEDVDVLLLAYELDGVLVSADEGLRTWADKIGIKLIDPKNFKNILESLVRHRFEGHHHHHH, MSLDWHTLLTRERLGKALYSADELGRSPFHKDHDRIIFSGAFRRLGRKTQVHPVSSNDHIHTRLTHSLEVSCVGRSLGMRVGETLRDNLPDWCAPSDLGMIVQSACLAHDIGNPPFGHSGEDAIRHWFQQAAGRGWLDDMSDDERADFLNFEGNAQGFRVLTQLEYHQFDGGTRLTYATLGTYLKYPWSARHADALGYKKHKFGSYQSELPLLEQIARKLGLPQLEHQRWARHPLVYLMEAADDICYALIDLEDGLEMELLQYAEVEALLLDLVGEDLPETYRQLGPRDSRRRKLAILRGKAIEHLTNAAAHAFVEQQQALLAGQLPGDLVEHMHGPAKRCVLQAKDMARNKIFQDKRKTLHEIGAYTTLEILLNTFCGAALEQHGGRTPSFKSRRVLDLIGNNAPDPHASLHSAFLRMIDFIAGMTDSYASEMAREMTGRSSPTEGHHHHHH, MSLDWTCKHHADLTLKELYALLQLRTEVFVVEQKCPYQEVDGLDLVGDTHHLMAWRDGQLLAYLRLLDPVRHEGQVVIGRVVSSSAARGQGLGHQLMERALQAAERLWLDTPVYLSAQAHLQAYYGRYGFVAVTEVYLEDDIPHIGMRRA, MSLDYQGYLIDLDGTIYLGKEPIPAGKRFVERLQEKDLPFLFVTNNTTKSPETVAQRLANEFDIHVPASLVYTATLATIDYMKEANRGKKVFVIGEAGLIDLILEAGFEWDETNPDYVVVGLDTELSYEKVVLATLAIQKGALFIGTNPDKNIPTERGLLPGAGSVVTFVETATQTKPVYIGKPKAIIMERAIAHLGVEKEQVIMVGDNYETDIQSGIQNGIDSLLVTSGFTPKSAVPTLPTPPTYVVDSLDEWTFEGHHHHHH, MSLEAPVYKEIFGAVKIYELQKVIKMDTETEDVPMFTVQNLPREDIYKTIGEMAIIVPMKNEKLHLVDGVLKAIPHKSPIIIVSNSKRKGPNRFKQEVDLVKHFCNLTHSKVIMIHQRDPGLAEAFRETGYEDILDEKGLVRSGKGEGMLIGIMLAKAIGAKYVGFVDADNYIPGAVNEYVKDYAAGFLMSESEYAMVRLHWRHKPKVSRGTLYFKKWGRVSEITNRYLNQLISEKTAFETTIMVTGNAGEHAMTMKLAEILPFSTGYSIEPYEIVYLLERFGSWENVEEFQDVFDQGIEIFQIETLNPHFHEDKGQEHVKEMVLLSLTTIYHSKLASERLKRQILEDLRMHGIIKEDEEPPKPRVMRPIKDIDIKKWMKTLESNQETLLRFDLEGHHHHHH
